Values quoted from earlier work as cited in paper PMC7496540.

Columns and labels:
[1] = target: λ exonuclease (Escherichia phage lambda) (UniProt P03697)
[2] = target: SSB C-terminal peptide C-terminal nine residues (Escherichia coli) (UniProt P0AGE0)
Sequence of UniProt P0AGE0 (P0AGE0 whole entry, looked up): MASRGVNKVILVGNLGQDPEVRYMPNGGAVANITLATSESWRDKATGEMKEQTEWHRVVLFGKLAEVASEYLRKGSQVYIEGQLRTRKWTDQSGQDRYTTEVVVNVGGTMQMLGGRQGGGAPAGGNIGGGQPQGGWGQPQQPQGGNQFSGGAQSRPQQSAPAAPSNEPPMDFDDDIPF

Sequence of UniProt P03697 (P03697 whole entry): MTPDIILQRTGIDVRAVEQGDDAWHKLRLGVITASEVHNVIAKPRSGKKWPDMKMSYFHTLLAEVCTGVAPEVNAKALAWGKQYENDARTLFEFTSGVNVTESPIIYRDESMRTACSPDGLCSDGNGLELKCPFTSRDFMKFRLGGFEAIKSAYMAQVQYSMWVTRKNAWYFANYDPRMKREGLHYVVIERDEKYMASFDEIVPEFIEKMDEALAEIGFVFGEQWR

For Redβ (from UniProt P03698), the Kd [1] is listed as 7.9 µM and the Kd [2] is listed as 10 µM.
